{
  "source": "patent US6403765B1",
  "about": "“Truncated Apaf-1 and methods of use thereof” (Thomas Jefferson University, priority 1998, dated 2002)",
  "assay_in_all_cases": "In vitro caspase 9 activation assay: recombinant Apaf-1 variants incubated with in vitro translated procaspase-9",
  "type_in_all_cases": "biochemical",
  "key": {"[1]": {"molecular_target": "T1, procaspase-9 (Homo sapiens, UniProt P55211)", "T1 construct": "schematic representation of full length procaspase-9; made in house; host or cells: coupled in vitro transcription/translation in rabbit reticulocyte lysate (TNT Kit, Promega)", "T1 sequence (P55211 134-416)": "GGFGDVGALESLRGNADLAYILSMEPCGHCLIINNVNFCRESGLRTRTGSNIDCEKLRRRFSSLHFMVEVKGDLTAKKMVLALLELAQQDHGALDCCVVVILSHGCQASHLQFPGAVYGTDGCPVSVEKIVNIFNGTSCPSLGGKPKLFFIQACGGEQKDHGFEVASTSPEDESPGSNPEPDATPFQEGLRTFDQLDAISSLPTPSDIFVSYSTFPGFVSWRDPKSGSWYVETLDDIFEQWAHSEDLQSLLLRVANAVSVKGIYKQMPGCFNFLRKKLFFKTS"}, "[2]": {"molecular_target": "T2, procaspase-9 (Homo sapiens, UniProt P55211)", "T2 construct": "schematic representation of full length procaspase-9; made in house; host or cells: coupled in vitro transcription/translation in rabbit reticulocyte lysate (TNT Kit, Promega)", "T2 sequence (P55211 1-416)": "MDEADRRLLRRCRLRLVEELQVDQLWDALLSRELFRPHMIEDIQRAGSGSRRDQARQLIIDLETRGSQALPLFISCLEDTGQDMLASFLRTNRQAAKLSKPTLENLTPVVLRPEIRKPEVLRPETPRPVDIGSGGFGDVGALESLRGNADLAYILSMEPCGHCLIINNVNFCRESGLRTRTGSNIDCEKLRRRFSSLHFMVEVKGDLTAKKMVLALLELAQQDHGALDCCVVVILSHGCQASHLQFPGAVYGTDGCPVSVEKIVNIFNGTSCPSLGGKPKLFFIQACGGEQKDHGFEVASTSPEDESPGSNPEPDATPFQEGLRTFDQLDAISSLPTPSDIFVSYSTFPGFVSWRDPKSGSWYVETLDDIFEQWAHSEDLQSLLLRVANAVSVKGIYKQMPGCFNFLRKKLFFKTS", "details": "in the absence of cytochrome c or dATP; 200 ng protein, 2 h at 30° C.; SDS-PAGE and autoradiography (FIG. 2A)"}, "[3]": {"molecular_target": "T3, procaspase-9 (Homo sapiens, UniProt P55211, C287A)", "T3 construct": "schematic representation of full length procaspase-9; made in house; host or cells: coupled in vitro transcription/translation in rabbit reticulocyte lysate (TNT Kit, Promega)", "T3 sequence (P55211 1-416 C287A)": "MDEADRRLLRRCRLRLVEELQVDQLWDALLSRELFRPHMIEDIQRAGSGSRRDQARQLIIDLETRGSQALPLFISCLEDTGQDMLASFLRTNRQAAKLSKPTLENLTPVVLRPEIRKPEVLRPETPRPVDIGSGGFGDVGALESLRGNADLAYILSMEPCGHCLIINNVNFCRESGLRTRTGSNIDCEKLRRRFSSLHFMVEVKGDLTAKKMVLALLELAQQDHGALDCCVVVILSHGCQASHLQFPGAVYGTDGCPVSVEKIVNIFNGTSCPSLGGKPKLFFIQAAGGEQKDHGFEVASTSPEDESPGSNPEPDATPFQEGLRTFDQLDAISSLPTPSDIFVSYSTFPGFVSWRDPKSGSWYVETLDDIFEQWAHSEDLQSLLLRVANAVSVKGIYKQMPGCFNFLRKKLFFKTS"}, "[4]": {"tested_on": "procaspase-9"}, "[5]": {"details": "in the presence of non-radiolabeled WT procaspase-9, FIG. 14"}},
  "data": [
    {"molecule": "Apaf-530: truncated Apaf-1 (residues 1-530) lacking its WD-40 repeats, recombinant (protein, UniProt O14727 1-530, looked up, fragment) MDAKARNCLLQHREALEKDIKTSYIMDHMISDGFLTISEEEKVRNEPTQQQRAAMLIKMILKKDNDSYVSFYNALLHEGYKDLAALLHDGIPVVSSSSGKDSVSGITSYVRTVLCEGGVPQRPVVFVTRKKLVNAIQQKLSKLKGEPGWVTIHGMAGCGKSVLAAEAVRDHSLLEGCFPGGVHWVSVGKQDKSGLLMKLQNLCTRLDQDESFSQRLPLNIEEAKDRLRILMLRKHPRSLLILDDVWDSWVLKAFDSQCQILLTTRDKSVTDSVMGPKYVVPVESSLGKEKGLEILSLFVNMKKADLPEQAHSIIKECKGSPLVVSLIGALLRDFPNRWEYYLKQLQNKQFKRIRKSSSYDYEALDEAMSISVEMLREDIKDYYTDLSILQKDVKVPTKVLCILWDMETEEVEDILQEFVNKSLLFCDRNGKSFRYYLHDLQVDFLTEKNCSQLQDLHKKIITQFQRYHQPHTLSPDQEDCMYWYNFLAYHMASAKMHKELCALMFSLDWIKAKTELVGPAHLIHEFVEYR", "values": [
      {"measurement": "processing of prodomainless procaspase-9 (residues 134-416)", "setting": "[1]; 35S-labeled substrate, FIG. 3", "result": "prevented processing"},
      {"measurement": "processing of 35S-labeled prodomainless procaspase-9", "setting": "[1]; [5]", "result": "not"},
      {"measurement": "processing of procaspase-9 to produce a 35 kDa fragment (p35)", "setting": "[2]", "result": "able to promote processing of procaspase-9"},
      {"measurement": "processing of procaspase-9 active site C287A mutant", "setting": "[3]; 35S-labeled substrate, FIG. 3", "result": "unable to promote processing"},
      {"measurement": "processing of 35S-labeled C287A mutant procaspase-9", "setting": "[3]; [5]", "result": "able to induce processing"},
      {"measurement": "processing of WT or D330A mutant procaspase-9", "setting": "[4]; 35S-labeled substrate, FIG. 3", "result": "produced the p35 fragment"},
      {"measurement": "autoprocessing of C287A and R355E mutant procaspase-9", "setting": "[4]; mutants incubated separately or together, 1 hour at 30° C., FIG. 13", "result": "none of the mutants were able to autoprocess"}
    ]}
  ]
}
